Reference: patent US20120321699A1

Tests used:
[1] = biological target: gp120 (Table 2, strain not given) (HIV-1); assay: Luminex bead assay
HIV-1 Env gp41 (HIV-1) = assay: Luminex bead assay
Histone autoantigen [2] = assay: Athena assay, mAb 50 ug/ml; positive >50
Scl 70 autoantigen [3] = assay: Athena assay, mAb 50 ug/ml; positive >50
SSA autoantigen [4] = assay: Athena assay, mAb 50 ug/ml; positive >50
Sm autoantigen [5] = assay: Athena assay, mAb 50 ug/ml; positive >50
SSB autoantigen [6] = assay: Athena assay, mAb 50 ug/ml; positive >50
RNP autoantigen [7] = assay: Athena assay, mAb 50 ug/ml; positive >50
Jo 1 autoantigen [8] = assay: Athena assay, mAb 50 ug/ml; positive >50
centromere B autoantigen [9] = assay: Athena assay, mAb 50 ug/ml; positive >50
HCV E2 (HCV) = assay: Luminex assay, antibody 50 µg/ml
[10] = biological target: Influenza HA (Wisconsin) (influenza virus); assay: Luminex assay, antibody 50 µg/ml
[11] = biological target: A244gD+ gp120 (herpes simplex virus; HIV-1); assay: SPR
[12] = biological target: HV00043 (63521 TC21 140C) (HIV-1); assay: SPR
[13] = biological target: HV00044 (6240 TZ5 140C) (HIV-1); assay: SPR
[14] = biological target: Env of HIV-1 clade B isolate JRFL (virus) (HIV-1); assay: cell-based or functional assay
[15] = biological target: Env of HIV-1 JRCSF.N160K (HIV-1) (UniProt P20871); assay: cell-based or functional assay
[16] = biological target: Env of HIV-1 Q23.17.N160K (HIV-1); assay: cell-based or functional assay
[17] = biological target: Env of HIV-1 7165.18.N160K (HIV-1); assay: cell-based or functional assay
[18] = biological target: Env of HIV-1 clade B isolate JR-CSF (HIV-1) (UniProt P20871); assay: cell-based or functional assay
[19] = biological target: Env of HIV-1 clade A isolate Q23.17 (HIV-1); assay: cell-based or functional assay
[20] = biological target: Env of HIV-1 JRFL.N160K.E168K (HIV-1); assay: cell-based or functional assay
[21] = biological target: Env of HIV-1 clade B isolate 7165.18 (HIV-1); assay: cell-based or functional assay
[22] = biological target: Env of HIV-1 JRFL.E168K (HIV-1); assay: cell-based or functional assay
Histone autoantigen [23] = assay: Athena assay, mAb 12.5 ug/ml; positive >50
Scl 70 autoantigen [24] = assay: Athena assay, mAb 12.5 ug/ml; positive >50
SSA autoantigen [25] = assay: Athena assay, mAb 12.5 ug/ml; positive >50
Sm autoantigen [26] = assay: Athena assay, mAb 12.5 ug/ml; positive >50
SSB autoantigen [27] = assay: Athena assay, mAb 12.5 ug/ml; positive >50
RNP autoantigen [28] = assay: Athena assay, mAb 12.5 ug/ml; positive >50
Jo 1 autoantigen [29] = assay: Athena assay, mAb 12.5 ug/ml; positive >50
centromere B autoantigen [30] = assay: Athena assay, mAb 12.5 ug/ml; positive >50
Histone autoantigen [31] = assay: Athena assay, mAb 6.25 ug/ml; positive >50
Scl 70 autoantigen [32] = assay: Athena assay, mAb 6.25 ug/ml; positive >50
SSA autoantigen [33] = assay: Athena assay, mAb 6.25 ug/ml; positive >50
Sm autoantigen [34] = assay: Athena assay, mAb 6.25 ug/ml; positive >50
SSB autoantigen [35] = assay: Athena assay, mAb 6.25 ug/ml; positive >50
RNP autoantigen [36] = assay: Athena assay, mAb 6.25 ug/ml; positive >50
Jo 1 autoantigen [37] = assay: Athena assay, mAb 6.25 ug/ml; positive >50
centromere B autoantigen [38] = assay: Athena assay, mAb 6.25 ug/ml; positive >50
Histone autoantigen [39] = assay: Athena assay, mAb 25 ug/ml; positive >50
Scl 70 autoantigen [40] = assay: Athena assay, mAb 25 ug/ml; positive >50
SSA autoantigen [41] = assay: Athena assay, mAb 25 ug/ml; positive >50
Sm autoantigen [42] = assay: Athena assay, mAb 25 ug/ml; positive >50
SSB autoantigen [43] = assay: Athena assay, mAb 25 ug/ml; positive >50
RNP autoantigen [44] = assay: Athena assay, mAb 25 ug/ml; positive >50
Jo 1 autoantigen [45] = assay: Athena assay, mAb 25 ug/ml; positive >50
centromere B autoantigen [46] = assay: Athena assay, mAb 25 ug/ml; positive >50
A244 gD- gp120 (HIV-1) = assay: SPR
CM 243 gp120 (HIV-1) = assay: ELISA on monomeric envelope
[47] = biological target: HV00046 (902114 B2 140C) (HIV-1); assay: ELISA on monomeric envelope

1b12 original (antibody)
Reactivity in Luminex Units (Luminex Units) [1]: 5110

2F5 (antibody)
Reactivity in Luminex Units (Luminex Units) [1]: 9240
Reactivity in Luminex Units (Luminex Units) (HIV-1 Env gp41 (HIV-1)): 32700

PG16 (antibody)
Autoreactivity (Athena) (Histone autoantigen [2]): 2
Autoreactivity (Athena) (Scl 70 autoantigen [3]): 1
Autoreactivity (Athena) (SSA autoantigen [4]): 4
Autoreactivity (Athena) (Sm autoantigen [5]): 0
Autoreactivity (Athena) (SSB autoantigen [6]): 2
Autoreactivity (Athena) (RNP autoantigen [7]): 2
Autoreactivity (Athena) (Jo 1 autoantigen [8]): 0
Autoreactivity (Athena) (centromere B autoantigen [9]): 3
background substracted RFUs (HCV E2 (HCV)): 0 RFU
background substracted RFUs [10]: 0 RFU
Kd [11]: 0.45 µM
Kd [12]: 0.16 µM
Kd [13]: 0.11 µM
IC50 ug/ml (virus neutralization) [14]: > 50 µg/mL
IC80 ug/ml (virus neutralization) [14]: > 50 µg/mL
IC50 ug/ml (virus neutralization) [15]: > 50 µg/mL
IC80 ug/ml (virus neutralization) [15]: > 50 µg/mL
IC50 ug/ml (virus neutralization) [16]: > 50 µg/mL
IC80 ug/ml (virus neutralization) [16]: > 50 µg/mL
IC50 ug/ml (virus neutralization) [17]: > 50 µg/mL
IC80 ug/ml (virus neutralization) [17]: > 50 µg/mL
IC50 ug/ml (virus neutralization) [18]: 0.003 µg/mL
IC80 ug/ml (virus neutralization) [18]: 0.012 µg/mL
IC50 ug/ml (virus neutralization) [19]: 0.001 µg/mL
IC80 ug/ml (virus neutralization) [19]: 0.003 µg/mL
IC50 ug/ml (virus neutralization) [20]: > 50 µg/mL
IC80 ug/ml (virus neutralization) [20]: > 50 µg/mL
IC50 ug/ml (virus neutralization) [21]: 11.8 µg/mL
IC80 ug/ml (virus neutralization) [21]: > 50 µg/mL
IC50 ug/ml (virus neutralization) [22]: 0.003 µg/mL
IC80 ug/ml (virus neutralization) [22]: 0.015 µg/mL
Autoreactivity (Athena) (Histone autoantigen [23]): 8
Autoreactivity (Athena) (Scl 70 autoantigen [24]): 1
Autoreactivity (Athena) (SSA autoantigen [25]): 4
Autoreactivity (Athena) (Sm autoantigen [26]): 2
Autoreactivity (Athena) (SSB autoantigen [27]): 4
Autoreactivity (Athena) (RNP autoantigen [28]): 3
Autoreactivity (Athena) (Jo 1 autoantigen [29]): 1
Autoreactivity (Athena) (centromere B autoantigen [30]): 4
Autoreactivity (Athena) (Histone autoantigen [31]): 8
Autoreactivity (Athena) (Scl 70 autoantigen [32]): 2
Autoreactivity (Athena) (SSA autoantigen [33]): 5
Autoreactivity (Athena) (Sm autoantigen [34]): 2
Autoreactivity (Athena) (SSB autoantigen [35]): 5
Autoreactivity (Athena) (RNP autoantigen [36]): 2
Autoreactivity (Athena) (Jo 1 autoantigen [37]): 2
Autoreactivity (Athena) (centromere B autoantigen [38]): 5

17b original CCR5 binding site antibody
Reactivity in Luminex Units (Luminex Units) (HIV-1 Env gp41 (HIV-1)): 1430

CH01 (antibody)
Autoreactivity (Athena) (Histone autoantigen [2]): 26
Autoreactivity (Athena) (Scl 70 autoantigen [3]): 4
Autoreactivity (Athena) (SSA autoantigen [4]): 8
Autoreactivity (Athena) (Sm autoantigen [5]): 4
Autoreactivity (Athena) (SSB autoantigen [6]): 5.5
Autoreactivity (Athena) (RNP autoantigen [7]): 8
Autoreactivity (Athena) (Jo 1 autoantigen [8]): 3.5
Autoreactivity (Athena) (centromere B autoantigen [9]): 22
background substracted RFUs [10]: 0 RFU
Autoreactivity (Athena) (Histone autoantigen [39]): 17.5
Autoreactivity (Athena) (Scl 70 autoantigen [40]): 3
Autoreactivity (Athena) (SSA autoantigen [41]): 6.5
Autoreactivity (Athena) (Sm autoantigen [42]): 4
Autoreactivity (Athena) (SSB autoantigen [43]): 5.5
Autoreactivity (Athena) (RNP autoantigen [44]): 5.5
Autoreactivity (Athena) (Jo 1 autoantigen [45]): 2.5
Autoreactivity (Athena) (centromere B autoantigen [46]): 14
Kd (A244 gD- gp120 (HIV-1)): 0.34 µM
IC50 ug/ml (virus neutralization) [14]: > 50 µg/mL
IC80 ug/ml (virus neutralization) [14]: > 50 µg/mL
IC50 ug/ml (virus neutralization) [15]: > 50 µg/mL
IC80 ug/ml (virus neutralization) [15]: > 50 µg/mL
IC50 ug/ml (virus neutralization) [16]: > 50 µg/mL
IC80 ug/ml (virus neutralization) [16]: > 50 µg/mL
IC50 ug/ml (virus neutralization) [17]: > 50 µg/mL
IC80 ug/ml (virus neutralization) [17]: > 50 µg/mL
IC50 ug/ml (virus neutralization) [19]: 0.014 µg/mL
IC80 ug/ml (virus neutralization) [19]: 0.035 µg/mL
IC50 ug/ml (virus neutralization) [20]: > 50 µg/mL
IC80 ug/ml (virus neutralization) [20]: > 50 µg/mL
IC50 ug/ml (virus neutralization) [21]: 5.82 µg/mL
IC80 ug/ml (virus neutralization) [21]: > 50 µg/mL
IC50 ug/ml (virus neutralization) [22]: 0.044 µg/mL
IC80 ug/ml (virus neutralization) [22]: 0.382 µg/mL
Autoreactivity (Athena) (Histone autoantigen [23]): 13.5
Autoreactivity (Athena) (Scl 70 autoantigen [24]): 2
Autoreactivity (Athena) (SSA autoantigen [25]): 5
Autoreactivity (Athena) (Sm autoantigen [26]): 3
Autoreactivity (Athena) (SSB autoantigen [27]): 5
Autoreactivity (Athena) (RNP autoantigen [28]): 4.5
Autoreactivity (Athena) (Jo 1 autoantigen [29]): 2
Autoreactivity (Athena) (centromere B autoantigen [30]): 10
Autoreactivity (Athena) (Histone autoantigen [31]): 10
Autoreactivity (Athena) (Scl 70 autoantigen [32]): 1.5
Autoreactivity (Athena) (SSA autoantigen [33]): 5.5
Autoreactivity (Athena) (Sm autoantigen [34]): 2.5
Autoreactivity (Athena) (SSB autoantigen [35]): 5.5
Autoreactivity (Athena) (RNP autoantigen [36]): 4
Autoreactivity (Athena) (Jo 1 autoantigen [37]): 2
Autoreactivity (Athena) (centromere B autoantigen [38]): 7
EC50 (CM 243 gp120 (HIV-1)): 12.7 µM
EC50 [47]: 63.2 µM

PG9 (antibody)
Autoreactivity (Athena) (Histone autoantigen [2]): 7
Autoreactivity (Athena) (Scl 70 autoantigen [3]): 2
Autoreactivity (Athena) (SSA autoantigen [4]): 5
Autoreactivity (Athena) (Sm autoantigen [5]): 2
Autoreactivity (Athena) (SSB autoantigen [6]): 5
Autoreactivity (Athena) (RNP autoantigen [7]): 3
Autoreactivity (Athena) (Jo 1 autoantigen [8]): 1
Autoreactivity (Athena) (centromere B autoantigen [9]): 5
background substracted RFUs (HCV E2 (HCV)): 0 RFU
background substracted RFUs [10]: 0 RFU
Autoreactivity (Athena) (Histone autoantigen [39]): 9
Autoreactivity (Athena) (Scl 70 autoantigen [40]): 1
Autoreactivity (Athena) (SSA autoantigen [41]): 5
Autoreactivity (Athena) (Sm autoantigen [42]): 3
Autoreactivity (Athena) (SSB autoantigen [43]): 6
Autoreactivity (Athena) (RNP autoantigen [44]): 2
Autoreactivity (Athena) (Jo 1 autoantigen [45]): 2
Autoreactivity (Athena) (centromere B autoantigen [46]): 5
Kd [11]: 0.0048 µM
Kd [12]: 0.00075 µM
Kd [13]: 0.21 µM
IC50 ug/ml (virus neutralization) [14]: > 50 µg/mL
IC80 ug/ml (virus neutralization) [14]: > 50 µg/mL
IC50 ug/ml (virus neutralization) [15]: > 50 µg/mL
IC80 ug/ml (virus neutralization) [15]: > 50 µg/mL
IC50 ug/ml (virus neutralization) [16]: > 50 µg/mL
IC80 ug/ml (virus neutralization) [16]: > 50 µg/mL
IC50 ug/ml (virus neutralization) [17]: > 50 µg/mL
IC80 ug/ml (virus neutralization) [17]: > 50 µg/mL
IC50 ug/ml (virus neutralization) [18]: 0.003 µg/mL
IC80 ug/ml (virus neutralization) [18]: 0.008 µg/mL
IC50 ug/ml (virus neutralization) [19]: 0.002 µg/mL
IC80 ug/ml (virus neutralization) [19]: 0.005 µg/mL
IC50 ug/ml (virus neutralization) [20]: > 50 µg/mL
IC80 ug/ml (virus neutralization) [20]: > 50 µg/mL
IC50 ug/ml (virus neutralization) [21]: > 50 µg/mL
IC80 ug/ml (virus neutralization) [21]: > 50 µg/mL
IC50 ug/ml (virus neutralization) [22]: 0.008 µg/mL
IC80 ug/ml (virus neutralization) [22]: 0.055 µg/mL
Autoreactivity (Athena) (Histone autoantigen [23]): 6
Autoreactivity (Athena) (Scl 70 autoantigen [24]): 2
Autoreactivity (Athena) (SSA autoantigen [25]): 5
Autoreactivity (Athena) (Sm autoantigen [26]): 3
Autoreactivity (Athena) (SSB autoantigen [27]): 4
Autoreactivity (Athena) (RNP autoantigen [28]): 2
Autoreactivity (Athena) (Jo 1 autoantigen [29]): 2
Autoreactivity (Athena) (centromere B autoantigen [30]): 4
Autoreactivity (Athena) (Histone autoantigen [31]): 5
Autoreactivity (Athena) (Scl 70 autoantigen [32]): 2
Autoreactivity (Athena) (SSA autoantigen [33]): 4
Autoreactivity (Athena) (Sm autoantigen [34]): 2
Autoreactivity (Athena) (SSB autoantigen [35]): 4
Autoreactivity (Athena) (RNP autoantigen [36]): 3
Autoreactivity (Athena) (Jo 1 autoantigen [37]): 2
Autoreactivity (Athena) (centromere B autoantigen [38]): 4
